The values that follow come from paper PMC4966575.

This experiment has as its target scFv 10-94 P (murine). Briefly: SPR.

“Protein L (PpL), free (from UniProt Q51918 1-992) (natural protein)” displayed a KD1 (bivalent model) of 7.5 nM.
